Laboratory results as given in patent publication US20240390512A1, “METHODS OF TREATING CHEMOTHERAPY-RESISTANT CANCER WITH AN ANTIBODY-DRUG CONJUGATE” (DAIICHI SANKYO COMPANY, LIMITED, priority 2021, published 2024).

How the values were obtained:
[1] = target: T1, human CDH6 (full-length and EC domain deletion mutants) (Homo sapiens, UniProt P55285); test: Epitope analysis of rat anti-CDH6 antibody by flow cytometry using domain deletion mutants; type: binding; settings: for binding to full-length hCDH6: flow cytometry, transfected 293α cells, antibody 20 nM; for epitope on hCDH6: from domain deletion mutant binding
T1 construct: each one of the five EC domains could be deleted from full-length human CDH6; 3xFLAG (deletion mutants only, from the vector p3×FLAG-CMV-9); expressed in transfected cells; host or cells: 293α cells
T1 sequence (P55285 54-790): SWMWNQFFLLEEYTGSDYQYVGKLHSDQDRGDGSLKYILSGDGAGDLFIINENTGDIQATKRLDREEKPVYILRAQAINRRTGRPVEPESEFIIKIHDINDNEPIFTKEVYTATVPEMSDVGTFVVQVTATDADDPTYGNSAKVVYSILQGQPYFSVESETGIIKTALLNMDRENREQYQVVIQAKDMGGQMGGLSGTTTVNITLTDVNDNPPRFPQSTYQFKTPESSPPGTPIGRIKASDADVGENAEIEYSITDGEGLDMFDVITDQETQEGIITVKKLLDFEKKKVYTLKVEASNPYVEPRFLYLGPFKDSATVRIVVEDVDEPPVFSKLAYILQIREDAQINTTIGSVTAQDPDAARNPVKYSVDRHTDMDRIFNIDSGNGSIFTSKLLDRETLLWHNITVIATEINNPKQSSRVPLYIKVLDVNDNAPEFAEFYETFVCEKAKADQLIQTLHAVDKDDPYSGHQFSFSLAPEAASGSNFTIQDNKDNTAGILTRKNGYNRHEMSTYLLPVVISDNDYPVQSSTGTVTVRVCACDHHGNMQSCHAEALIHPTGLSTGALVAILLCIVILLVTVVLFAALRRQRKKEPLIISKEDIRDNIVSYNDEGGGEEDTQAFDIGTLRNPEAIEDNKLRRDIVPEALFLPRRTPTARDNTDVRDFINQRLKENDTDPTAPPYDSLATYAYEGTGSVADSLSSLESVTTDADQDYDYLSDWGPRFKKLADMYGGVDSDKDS
Text: (§1) The full-length extracellular region of human CDH6 has five extracellular domains, EC1 (SEQ ID NO: 2), EC2 (SEQ ID NO: 3), EC3 (SEQ ID NO: 4), EC4 (SEQ ID NO: 5), and EC5 (SEQ ID NO: 6). A gene to be expressed such that each one of the five EC domains could be deleted from full-length human CDH6 was synthesized by GeneArt, and incorporated into p3×FLAG-CMV-9 vectors for mammalian expression (Sigma-Aldrich Co. LLC) according to a method known to a person skilled in the art in order to produce an expression vector for each domain deletion mutant lacking any one of EC1 to EC5.
(§2) The epitopes to which the rat anti-human CDH6 antibodies bound were identified by flow cytometry analysis using a 293α cell line transfected with each EC domain deletion vector. Using Lipofectamine 2000 (Thermo Fisher Scientific Inc.), each domain deletion mutant expression vector produced in Reference Example 2)-2-1, or pcDNA3.1-hCDH6 for the expression of full-length human CDH6 was transiently introduced into a 293α cell line, which was a cell line derived from HEK293 cells by stable transfection with integrin αv and integrin […] expression vectors. The cells were cultured overnight under conditions of 37° C. and 5% CO2, and thereafter, a cell suspension was prepared. The suspension of the transfected 293α cells was centrifuged, and a supernatant was then removed. Thereafter, the cells were suspended by the addition of each of the 4 rat anti-CDH6 monoclonal antibodies (clone Nos: rG019, rG055, rG056 and rG061), which had been prepared in Reference Example 1)-7, or rat IgG control (R&D Systems, Inc.) (final concentration: 20 nM). The cells were left standing at 4° C. for 1 hour. The cells were washed twice with PBS supplemented with 5% FBS, and then suspended by the addition of Anti-Rat IgG (whole molecule)-FITC antibody produced in rabbit (Sigma-Aldrich Co. LLC) that had been 50-fold diluted with PBS supplemented with 5% FBS. The cells were left standing at 4° C. for 1 hour. The cells were washed twice with PBS supplemented with 5% FBS, followed by detection using a flow cytometer (Canto II; BD Biosciences). The data was analyzed using FlowJo (Tree Star, Inc.). In the histograms of FIGS. 2-1 to 2-6, the abscissa depicts FITC fluorescence intensity indicating the amount of the antibody bound, and the ordinate depicts cell count. […] Fluorescence intensity is enhanced when the antibody binds to full-length hCDH6 or each EC domain deletion mutant on the surface of cells. The rat IgG control binds to none of the transfected cells.

[2] = target: T2, human CDH6 (full-length and EC domain deletion mutants) (Homo sapiens, UniProt P55285, DEL384-486); test: as above; type: binding; settings: flow cytometry; transfected 293α cells; antibody 20 nM
T2 construct: each one of the five EC domains could be deleted from full-length human CDH6; 3xFLAG (deletion mutants only, from the vector p3×FLAG-CMV-9); expressed in transfected cells; host or cells: 293α cells
T2 sequence (P55285 with tags, fused parts or gaps DEL384-486): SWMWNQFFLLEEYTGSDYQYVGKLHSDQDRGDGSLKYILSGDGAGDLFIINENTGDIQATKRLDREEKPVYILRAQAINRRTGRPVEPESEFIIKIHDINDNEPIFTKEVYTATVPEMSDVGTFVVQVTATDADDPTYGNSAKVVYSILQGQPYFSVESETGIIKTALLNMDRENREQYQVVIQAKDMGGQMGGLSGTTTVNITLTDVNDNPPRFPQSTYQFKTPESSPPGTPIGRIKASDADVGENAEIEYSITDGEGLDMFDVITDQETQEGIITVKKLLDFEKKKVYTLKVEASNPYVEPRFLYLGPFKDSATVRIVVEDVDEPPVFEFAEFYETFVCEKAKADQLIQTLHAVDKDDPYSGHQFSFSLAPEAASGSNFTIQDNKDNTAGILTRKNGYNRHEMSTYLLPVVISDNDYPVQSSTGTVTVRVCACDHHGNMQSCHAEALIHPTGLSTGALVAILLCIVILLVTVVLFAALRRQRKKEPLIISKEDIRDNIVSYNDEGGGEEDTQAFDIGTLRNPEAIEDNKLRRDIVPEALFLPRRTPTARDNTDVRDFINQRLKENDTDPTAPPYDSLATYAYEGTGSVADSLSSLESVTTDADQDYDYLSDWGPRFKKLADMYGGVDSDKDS
Text: as §1, §2

Molecule | binding to full-length hCDH6 [1] | epitope on hCDH6 [1] | binding to EC4 deletion mutant [2]
rG055: rat anti-human CDH6 monoclonal antibody produced by hybridoma rG055; variable regions SEQ ID NO: 20 and 25 (antibody, listed as Rattus norvegicus, V domains shown) VL: DVQMTHSPSYLAASPGESVSISCKTSKNISNYLVWYQQKPGEAYKLLIYSGSTLQSGTPSRFSGSGSGTDFTLTIRSLEPEDFGLYFCQQYYEKPFTFGSGTKLEIKRA VH: EVQLQESGPGLVRPSQSLSLSCSVTDYSITSNYWGWIRRFPGNKMEWMGYITYSGYTSYNPSLQSRISITRDTSKNQFFLQLNSVTAEDTATYYCARSINHGGYSYVVDAWGPGASVTVSS | bind | EC3 | bind
rG061: rat anti-human CDH6 monoclonal antibody produced by hybridoma rG061; variable regions SEQ ID NO: 40 and 45 (antibody, listed as Rattus norvegicus, V domains shown) VL: DVQMTQSPSYLAASPGESVSISCKATKSISNYLAWYQQKPGEAYKVLIYSGSTLQSGTPSRFSGSGSGTDFTLTIRSLEPEDFGLYSCQQYYEKPLTFGSGTKLEIKRA VH: EVQLQESGPGLVKPSQSLSLTCSVTGYSITTYYWGWIRKFPGNKMEWMGYISYSGRTSYNPSLKSRMSITRDASKNQFFLQLNSVTTDDTATYYCARSPINHGGYWYFDFWGPGTMVTVSS | bind | EC3 | bind
rG056: rat anti-human CDH6 monoclonal antibody produced by hybridoma rG056; variable regions SEQ ID NO: 30 and 35 (antibody, listed as Rattus norvegicus, V domains shown) VL: DVQMTQSPSSLAASPGESVSISCRATKSIGIYLAWYQQKPGKTFKLLIYSGSTLQSGTPSRFSGSGSGTDFTLTIRSLEPEDFGLYFCQQFYENPFTFGSGTKLEIRRA VH: EVQLQESGPGLVKPSQSLSLTCSVTDYSITTYFWGWIRKFPGNKMEWMGYMSYRGGTSYNPSLKSRISITRDTSKNQFFLQLNSVTTEDTATYYCARCPNYGGHSLVFDYWGQGVMVTVSS | bind | EC3 | bind
rG019: rat anti-human CDH6 monoclonal antibody produced by hybridoma rG019; variable regions SEQ ID NO: 10 and 15 (antibody, listed as Rattus norvegicus, V domains shown) VL: DIQMTQSPSLLSASVGDRVTLNCKASQNIYKNLAWYQQKLGEGPKLLIYDANTLQTGIPSRFSGSGSGSDFTLTISSLQPEDVATYFCQQYYSGWAFGGVTNLELKRA VH: QVQLQQSGAELVKPGSSVKISCKASGYTFTRNFMHWIKQQPGNGLEWIGWIYCGDGETEYNQKFNGKATLTADRSSSTAYMELSRLTSEDSAVYFCARGVYGGFAGGYFDFWGQGVMVTVSS | bind | EC3 | bind
